According to US11618906B2, “Hydroxylation techniques” (HYPHA DISCOVERY LTD., priority 2018, dated 2023):
Positions count from the first letter of the chain named. Names and notes keep the numbering of the source.

B1: aluC09M33: cytochrome P450 aluC09 mutant T291I; amino acid sequence SEQ ID NO: 44 (protein, listed as Amycolatopsis lurida)
chain: MTDVEETTATLPLARKCPFSPPPEYERLRRESPVSRVGLPSGQTAWALTRLEDIREMLSSPHFSSDRQSPSFPLMVARQIRREDKPFRPSLIAMDPPEHSRARRDVVGEFTVKRMKALQPRIQQIVDEHLDALLAGPKPADLVQALSLPVPSLVICELLGVPYSDHEFFQSCSSRMLSREVTAEERMTAFEQLENYLDELVTKKEANATEDDLLGRQILKQRETGEADHGELVGLAFLLLIAGHETTANMISLGTVTLLENPDQLAKIKADPGKTLAAIEELLRVFTIAEIATSRFATADVEIGGTLIRAGEGVVGLSNAGNHDPDGFENPDTFDIERGARHHVAFGFGVHQCLGQNLARLELQIVFDTLFRRVPGLRIAVPVDELPFKHDSTIYGLHALPVTW
B2: aluC09M39: cytochrome P450 aluC09 mutant T291K; amino acid sequence SEQ ID NO: 68 (protein, listed as Amycolatopsis lurida)
chain: B1 chain with I291K
B3: aluC09M35: cytochrome P450 aluC09 mutant T291P; amino acid sequence SEQ ID NO: 52 (protein, listed as Amycolatopsis lurida)
chain: B1 chain with I291P

How the values were obtained:
Assay type in all cases: biochemical
[1] = Hydroxylation of flufenamic acid catalysed by cytochrome P450 aluC09 and mutants; details: for Flufenamic Acid (Substrate) 1.93 mins / Hydroxy-Flufenamic Acid (1) 1.69 mins / Hydroxy-Flufenamic Acid (2) 1.65 mins: % by UV peak area at 275 nm, 0.125 mg/ml substrate, 27° C., 16-20 hours; for Hydroxylated Ratio 1:2: flufenamic acid, ratio of UV peak areas at 275 nm
Procedure: (§1) Lyophilised material of mutants of CYP450aluC09, ferredoxinaluF03 and ferredoxin reductaseSCF15A was made as described in examples 3 and 4 and suspended in water (0.5 mL per vial) and biocatalysis was performed at 27° C. in the following conditions: 50 mM potassium phosphate pH 7.4, 5 mM MgCl2, 0.125 mg/ml substrate compound such as diclofenac (Sigma-Aldrich, UK), Aceclofenac (Tokyo Chemical Industry UK Ltd, UK), Indomethacin (Sigma-Aldrich, UK), Flufenamic acid (Sigma-Aldrich, UK), Napropamide (Sigma-Aldrich, UK), celecoxib (LC Laboratories, USA), valsartan (Tokyo Chemical Industry UK Ltd, UK), ruxolitinib (LC Laboratories, USA), 4-pyrrolidylacetophenone (Sigma-Aldrich, UK), tofacitinib (LC Laboratories, USA), bosentan (CarboSynth Ltd, UK), buparvaquone (MedChemtronica, Sweden), BIRB796 (Stratech Scientific Limited, UK), epothilone B (LC Laboratories, USA), ritonavir (Tokyo Chemical Industry UK Ltd, UK) or tivantinib (MedChemtronica, Sweden), P450AluC09 (concentration as in Table 8), 5 mM G6P, 1 mM NADP, 2 UN/ml G6PDH in a final volume of 100 μL. After 16-20 hours at 200 rpm (5 cm orbital shaker, Kuhner AG, Switzerland), reactions were extracted with an equal volume of acetonitrile, centrifuged to remove precipitated proteins and conversion assessed by UPLC-MS analysis.
(§2) UPLC data was obtained as follows:
(§3) Column: Acquity UPLC BEH Shield RP18 1.7 μm 2.1 mm i.d. 50 mm length
(§4) Solvents: H2O, B: Acetonitrile, both with 0.1% Formic acid
(§5) Detector: Waters Acquity UPLC PDA (UV-Vis detection) and Waters Acquity UPLC QDA (MS)
Flufenamic acid elutes at 1.93 minutes, hydroxy-flufenamic acid 1 elutes at 1.68 minutes and hydroxy-flufenamic acid 2 elutes at 1.65 minutes.

[2] = Metabolism of tivantinib by P450 aluC09 and mutants; details: percent of substrate being converted; 0.125 mg/ml, 27° C., 16-20 hours; [CYP] per enzyme as in Table 8
Procedure: as §1
(§6) However, of particular note when considering P450 concentration are the results for mutants M12, M20 and M34, as well as the deleterious impact on the range of substrate utility in mutants M39 and M40.

[3] = Metabolism of valsartan by P450 aluC09 and mutants; details: percent of substrate being converted; 0.125 mg/ml, 27° C., 16-20 hours; [CYP] per enzyme as in Table 8
Procedure: as §1, §6

[4] = Metabolism of tofacitinib by P450 aluC09 and mutants; details: percent of substrate being converted; 0.125 mg/ml, 27° C., 16-20 hours; [CYP] per enzyme as in Table 8
Procedure: as §1, §6

[5] = Metabolism of celecoxib by P450 aluC09 and mutants; details: percent of substrate being converted; 0.125 mg/ml, 27° C., 16-20 hours; [CYP] per enzyme as in Table 8
Procedure: as §1, §6

[6] = Metabolism of ruxolitinib by P450 aluC09 and mutants; details: percent of substrate being converted; 0.125 mg/ml, 27° C., 16-20 hours; [CYP] per enzyme as in Table 8
Procedure: as §1, §6

[7] = Metabolism of buparvaquone by P450 aluC09 and mutants; details: percent of substrate being converted; 0.125 mg/ml, 27° C., 16-20 hours; [CYP] per enzyme as in Table 8
Procedure: as §1, §6

[8] = Hydroxylation / de-N-ethylation of napropamide catalysed by cytochrome P450 aluC09 and mutants; details: for Desethyl Napropamide (1.62 min) / Desethyl-hydroxy-Napropamide (1.41 min) / Hydroxy-Napropamide (1) (1.53 min) / Hydroxy-Napropamide (2), (1.52 min) / M-2Da (unidentified) (1.89 min) / Napropamide (substrate): % by UV peak area at 275 nm, 0.125 mg/ml substrate, 27° C., 16-20 hours; for Hydroxylated Ratio 2:1: napropamide, ratio of UV peak areas
Procedure: as §1, §2, §3, §4, §5
Napropamide elutes at 1.76 minutes, unidentified metabolite (−2 Da) elutes at 1.90 minutes, desethyl-napropamide elutes at 1.62 minutes, hydroxy-napropamide 1 elutes at 1.53 minutes and hydroxy-napropamide 2 elutes at 1.52 minutes and the desethyl-hydroxy-napropamide product elutes at 1.41 minutes.

[9] = Metabolism of bosentan by P450 aluC09 and mutants; details: percent of substrate being converted; 0.125 mg/ml, 27° C., 16-20 hours; [CYP] per enzyme as in Table 8
Procedure: as §1, §6

[10] = Metabolism of 4-pyrrolidylacetophenone by P450 aluC09 and mutants; details: percent of substrate being converted; 0.125 mg/ml, 27° C., 16-20 hours; [CYP] per enzyme as in Table 8
Procedure: as §1, §6

[11] = Hydroxylation of diclofenac catalysed by cytochrome P450 aluC09 and mutants (UPLC-PDA-MS); details: for 4′,5-dihydroxy-diclofenac 1.38 mins / 4′-hydroxy-diclofenac (1) 1.62 mins / 5-hydroxy-diclofenac (2) 1.58 mins / Diclofenac (Substrate) 1.81 mins: % by UV peak area at 275 nm, 0.125 mg/ml substrate, 27° C., 16-20 hours; for regioselectivity of hydroxylation (product ratio 4′-hydroxydiclofenac : 5-hydroxydiclofenac) / Hydroxylated Ratio hydroxy 1:hydroxy 2: diclofenac; for Hydroxylated Ratio hydroxy 1:hydroxy 2: ratio of UV peak areas at 275nm
Procedure: as §1, §2, §3, §4, §5
Illustrative results for the hydroxylation of diclofenac by CYP450aluC09 and selected T291x mutants are summarised below in Table 3 with representative chromatograms resented in FIG. 3a-c; retention times: diclofenac 1.85-1.88 minutes, 5-hydroxydiclofenac 1.60-1.63 minutes, 4′-hydroxydiclofenac 1.65-1.68 minutes, 4′,5-dihydroxydiclofenac 1.40-1.42 minutes. The chromatographic retention times and mass spectra coincided with those of authentic samples.

[12] = Hydroxylation of aceclofenac catalysed by cytochrome P450 aluC09 and mutants; details: for Aceclofenac (Substrate) (1.80 mins) / Dihydroxy-Aceclofenac (1.42 mins) / Hydroxy-Aceclofenac (1) (1.64 min) / Hydroxy-Aceclofenac (2) (1.60 min): % by UV peak area at 275 nm, 0.125 mg/ml substrate, 27° C., 16-20 hours; for Hydroxylated Ratio 2:1: aceclofenac, ratio of UV peak areas at 275 nm
Procedure: as §1, §2, §3, §4, §5
Chromatograms are provided in FIGS. 5a-c; aceclofenac elutes at 1.80 minutes, hydroxy-aceclofenac acid 1 elutes at 1.64 minutes, hydroxy-aceclofenac acid 2 elutes at 1.60 minutes and dihydroxy-aceclofenac elutes at 1.42 minutes.

[13] = Metabolism of epothilone B by P450 aluC09 and mutants; details: percent of substrate being converted; 0.125 mg/ml, 27° C., 16-20 hours; [CYP] per enzyme as in Table 8
Procedure: as §1, §6

[14] = O-demethylation of indomethacin catalysed by cytochrome P450 aluC09 and mutants; details: % by UV peak area at 275 nm; 0.125 mg/ml substrate, 27° C., 16-20 hours
Procedure: as §1, §2, §3, §4, §5

[15] = Metabolism of ritonavir by P450 aluC09 and mutants; details: percent of substrate being converted; 0.125 mg/ml, 27° C., 16-20 hours; [CYP] per enzyme as in Table 8
Procedure: as §1, §6

[16] = Metabolism of BIRB796 by P450 aluC09 and mutants; details: percent of substrate being converted; 0.125 mg/ml, 27° C., 16-20 hours; [CYP] per enzyme as in Table 8
Procedure: as §1, §6

Molecule	Flufenamic Acid (Substrate) 1.93 mins [1] [%]	Hydroxy-Flufenamic Acid (1) 1.69 mins [1] [%]	Hydroxy-Flufenamic Acid (2) 1.65 mins [1] [%]	Hydroxylated Ratio 1:2 [1]	% conversions (avg) Tivantinib [2] [%]	% conversions (avg) Valsartan [3] [%]	% conversions (avg) Tofacitinib [4] [%]	% conversions (avg) Celecoxib [5] [%]	% conversions (avg) Ruxolitinib [6] [%]	% conversions (avg) Buparvaquone [7] [%]	Desethyl Napropamide (1.62 min) [8] [%]	Desethyl-hydroxy-Napropamide (1.41 min) [8] [%]	Hydroxy-Napropamide (1) (1.53 min) [8] [%]	Hydroxy-Napropamide (2), (1.52 min) [8] [%]	M-2Da (unidentified) (1.89 min) [8] [%]	Napropamide (substrate) [8] [%]	Hydroxylated Ratio 2:1 [8]	% conversions (avg) Bosentan [9] [%]	% conversions (avg) 4-pyrrolidylacetophenone [10] [%]	4′,5-dihydroxy-diclofenac 1.38 mins [11] [%]	further results
B1	98.3	1.0	0.6	1.6	29.6	12.4	1.1	2.8	30.6	8.2	30.6	5.7	1.8	4.1	5.1	56.0	2.3	98.9	7.9	1.1	4′-hydroxy-diclofenac (1) 1.62 mins [11]: 29.5%; 5-hydroxy-diclofenac (2) 1.58 mins [11]: 6.7%; Diclofenac (Substrate) 1.81 mins [11]: 63.3%; regioselectivity of hydroxylation (product ratio 4′-hydroxydiclofenac : 5-hydroxydiclofenac) [11]: over four-fold; Hydroxylated Ratio hydroxy 1:hydroxy 2 [11]: 4.4; regioselectivity of hydroxylation of aceclofenac compared to the wild-type enzyme [12]: reversal of the regioselectivity; Aceclofenac (Substrate) (1.80 mins) [12]: 30.8%; Dihydroxy-Aceclofenac (1.42 mins) [12]: 8.8%; Hydroxy-Aceclofenac (1) (1.64 min) [12]: 41.7%; Hydroxy-Aceclofenac (2) (1.60 min) [12]: 18.6%; Hydroxylated Ratio 2:1 [12]: 0.4; % conversions (avg) Epothilone B [13]: 21.8%; Indomethacin (1.74 mins) [14]: 92.8%; O-demethyl-Indomethacin (1.52 mins) [14]: 7.2%; % conversions (avg) Ritonavir [15]: 41.3%; % conversions (avg) BIRB796 [16]: 13.5%
B2	94.4	5.1	0.5	4.9	7.2	7.8	0	0	5.3	0	16.3	0.7	1.4	1.6	2.3	78.2	1.2	85.1	1.5	2.1	production of hydroxyl-flufenamic acid 2 ([1]; peak at 1.65 minutes, compared to wild-type): no detectable production; 4′-hydroxy-diclofenac (1) 1.62 mins [11]: 42.8%; 5-hydroxy-diclofenac (2) 1.58 mins [11]: 14.6%; Diclofenac (Substrate) 1.81 mins [11]: 41.4%; Hydroxylated Ratio hydroxy 1:hydroxy 2 [11]: 2.9; Aceclofenac (Substrate) (1.80 mins) [12]: 63.7%; Dihydroxy-Aceclofenac (1.42 mins) [12]: 4.4%; Hydroxy-Aceclofenac (1) (1.64 min) [12]: 18.6%; Hydroxy-Aceclofenac (2) (1.60 min) [12]: 13.3%; Hydroxylated Ratio 2:1 [12]: 0.7; % conversions (avg) Epothilone B [13]: 1.6%; Indomethacin (1.74 mins) [14]: 93.0%; O-demethyl-Indomethacin (1.52 mins) [14]: 7.0%; % conversions (avg) Ritonavir [15]: 39.2%; % conversions (avg) BIRB796 [16]: 0%
B3	95.8	2.7	1.5	1.9	35.7	21.8	1.1	1.5	34.1	7.1	36.6	4.8	1.2	3.6	5.3	51.0	3.0	98.4	3.3	0.9	4′-hydroxy-diclofenac (1) 1.62 mins [11]: 41.3%; 5-hydroxy-diclofenac (2) 1.58 mins [11]: 9.9%; Diclofenac (Substrate) 1.81 mins [11]: 48.2%; regioselectivity of hydroxylation (product ratio 4′-hydroxydiclofenac : 5-hydroxydiclofenac) [11]: over four-fold; Hydroxylated Ratio hydroxy 1:hydroxy 2 [11]: 4.2; Aceclofenac (Substrate) (1.80 mins) [12]: 21.8%; Dihydroxy-Aceclofenac (1.42 mins) [12]: 26.6%; Hydroxy-Aceclofenac (1) (1.64 min) [12]: 12.2%; Hydroxy-Aceclofenac (2) (1.60 min) [12]: 39.4%; Hydroxylated Ratio 2:1 [12]: 3.2; % conversions (avg) Epothilone B [13]: 20.6%; Indomethacin (1.74 mins) [14]: 94.1%; O-demethyl-Indomethacin (1.52 mins) [14]: 5.9%; % conversions (avg) Ritonavir [15]: 37.6%; % conversions (avg) BIRB796 [16]: 4.6%
